Measurements reported in IntAct's records for PubMed 23629652.

Biological target: klk5_human KLK5 (UniProt Q9Y337)
Sequence (Q9Y337 whole entry): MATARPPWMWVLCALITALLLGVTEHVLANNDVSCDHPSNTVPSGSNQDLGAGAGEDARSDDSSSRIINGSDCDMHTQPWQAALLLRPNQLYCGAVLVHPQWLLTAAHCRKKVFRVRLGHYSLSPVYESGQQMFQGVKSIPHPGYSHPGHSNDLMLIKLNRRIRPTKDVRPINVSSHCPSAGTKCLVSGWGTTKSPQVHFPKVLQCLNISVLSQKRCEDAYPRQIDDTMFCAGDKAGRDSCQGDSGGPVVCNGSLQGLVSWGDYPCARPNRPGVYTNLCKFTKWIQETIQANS

effect of a mutation on the interaction: disrupting interaction
Substance: Filaggrin (Homo sapiens), P20930 S3385H;Y3388H;Q3389H;S3391H;T3392H
